Assay results: the supplement of paper PMC10724198
± gives the standard deviation of the averaged measurements.

test system: Saccharomyces cerevisiae; assay: protein stability index of tFT-peptide fusion (C-terminal peptide) (PSI (0-1 scale)); higher = more stable (slower turnover); conditions: genetic background: wild type; temperature: 30 C
Protocol: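 Multiplexed protein stability (MPS) profiling in S. cerevisiae. Random 12-aa peptides (tFT-X12 library) are fused to the C-terminus of a sfGFP-mCherry tandem fluorescent timer, after mCherry and a GGGS linker. Cells are FACS-sorted into 8 mCherry/sfGFP bins and deep-sequenced. The protein stability index (PSI) is the read-weighted bin average, scaled from 0 (unstable) to 1 (stable). Only peptides with >10 reads are reported; cells were grown at 30 °C in SC-His with glucose.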
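Also: PSI is a weighted mean of sequencing reads over stability bins, variants kept only with over 10 reads, mCherry proximal and sfGFP distal, peptide attached via GGGS linker.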

Sequence	protein stability index
ARLAYESSPLPR	0.7185 ± 0.0056
ARNDAGKRERVT	0.696 ± 0.016
ARNKKKDLREIK	0.761 ± 0.054
ARPCPRPHVPST	0.706 ± 0.043
ARPFLWDFCLGR	0.681 ± 0.028
ARPGAWAPTEVD	0.737 ± 0.0099
ARPLHSIGPAII	0.658 ± 0.0089
ARPPTPLRKGAP	0.673 ± 0.017
ARPSRPPPPSPP	0.662 ± 0.018
ARPVPRAPSRYA	0.647 ± 0.047
ARRTEEVVLRSL	0.693 ± 0.059
ARSERVVPKMQS	0.732 ± 0.043
ARSGDSGQPPSQ	0.689 ± 0.05
ARSPSPLPSPPP	0.702 ± 0.018
ARVPPFPCHPTL	0.686 ± 0.03
ARVRAREGGDRG	0.624 ± 0.0076
ASDSNPLDPADD	0.708 ± 0.011
ASEHRPPRPHER	0.683 ± 0.071
ASFPPVHPALSP	0.664 ± 0.035
ASIRLSPSWVQR	0.652 ± 0.0081
ASLLGLLIHLGR	0.6951 ± 0.0059
ASNPGPLTPPQP	0.705 ± 0.0087
ASPCTVAQDPRT	0.621 ± 0.023
ASPFASCPPSLP	0.714 ± 0.037
ASPPAYGPPPPP	0.6806 ± 0.0035

Sequence	protein stability index
ASPSPLPPLPPP	0.718 ± 0.1
ASPYTVTPLTNS	0.693 ± 0.016
ASSLSHLSLPAP	0.695 ± 0.017
ASSLSPSTFFCL	0.642 ± 0.015
ASSVVGLEERVR	0.728 ± 0.049
ASTCLKFTPTIF	0.883 ± 0.1
ASTSPSASSSPP	0.727 ± 0.024
ASVLGGLFRDRV	0.773 ± 0.057
ASVSVWLVFSGG	0.594 ± 0.0075
ASYGHCTTCRRT	0.717 ± 0.021
ASYGTRHSAPSV	0.678 ± 0.0076
ASYSFLSFCNRV	0.631 ± 0.015
ATACSIMISNAV	0.662 ± 0.029
ATKAKKGTMSHE	0.652 ± 0.051
ATPPSPLPPSPP	0.754 ± 0.061
ATQVGGPTHSHP	0.7016 ± 0.0031
ATRLFSSNLFLR	0.576 ± 0.051
ATSFSLLPACFS	0.686 ± 0.0007
ATYNASLERLRP	0.719 ± 0.2
AVAETCEQAGRG	0.675 ± 0.066
AVAYMAHLPITR	0.69 ± 0.019
AVCGSISSWMWF	0.696 ± 0.0092
AVFSWVTAGQCD	0.684 ± 0.027
AVGQAGITSLVL	0.699 ± 0.029
AVLGWAGGGWAG	0.694 ± 0.11

Sequence	protein stability index
AVLPSLWLWTKK	0.682 ± 0.095
AVPITRLPSPSP	0.6668 ± 0.0047
AVPSAPPNPDAS	0.704 ± 0.046
AVRDGSGCQCVG	0.6797 ± 0.0012
AVRGCGVGSGWR	0.713 ± 0.02
AVRYFKLCRSCL	0.65 ± 0.012
AVTLAPPRLRPL	0.761 ± 0.029
AVTSLGGGIILN	0.659 ± 0.045
AVWNWEEVWLSG	0.654 ± 0.023
AWGRRGGRMKVG	0.62 ± 0.022
AWGWGGTGSAGA	0.71 ± 0.0097
AWGWPWGHGFVV	0.738 ± 0.047
AWLLWGPVLRGI	0.694 ± 0.051
AYLPSLPPLGGI	0.717 ± 0.06
AYRITRSRGTEF	0.7233 ± 0.0036
CAGPLLIPPLSL	0.6895 ± 0.0042
CAIGECRGAGVS	0.679 ± 0.032
CAIGTGTKVKPS	0.684 ± 0.016
CALCRLGVAWVS	0.596 ± 0.021
CAPTFSYSLVLS	0.514 ± 0.036
CARAAFRGYYAQ	0.744 ± 0.074
CASPLHPCPKST	0.6542 ± 0.0023
CCGDAVVGPRVV	0.711 ± 0.041
CCGSSPLPPFTS	0.724 ± 0.055
CCISCSVCKDGS	0.6183 ± 0.00094

Sequence	protein stability index
CCLSGGFFLFGL	0.622 ± 0.062
CCPVTLLLPFPL	0.606 ± 0.01
CCRRWSLEWGRG	0.717 ± 0.038
CCVGVGTRLGFA	0.646 ± 0.082
CCVKRARVPHFV	0.6159 ± 0.0014
CDEVEGVLLVRG	0.707 ± 0.047
CDFVFEFSCVQV	0.577 ± 0.025
CDRAYSPLSRHN	0.6848 ± 0.0063
CDVLNQTRKRHK	0.7028 ± 0.0019
CEVGSKGCACRV	0.649 ± 0.025
CFFGSILYLCFG	0.5331 ± 0.0045
CFLLCLSSSPVL	0.64 ± 0.029
CFPYFCGFLGPL	0.697 ± 0.031
CFVIFFSSPGVC	0.583 ± 0.03
CGAAFRSWTVRG	0.653 ± 0.067
CGAVDTETWWGG	0.642 ± 0.024
CGGAVMREGQVG	0.681 ± 0.013
CGGGGASGAIAR	0.668 ± 0.013
CGGGRSTAWERS	0.63 ± 0.015
CGGVLAQREVSG	0.637 ± 0.021
CGIAGVKSLGLC	0.717 ± 0.039
CGSCFIKRFGGG	0.631 ± 0.034
CGSTRGDCVGIW	0.705 ± 0.05
